In publication PMC5701296, “α-Synuclein-Dependent Calcium Entry Underlies Differential Sensitivity of Cultured SN and VTA Dopaminergic Neurons to a Parkinsonian Neurotoxin” (eNeuro, 2017):

Substrate: CN(C)c1ccc(-c2cc[n+](C)cc2)cc1
Test: concentration-dependent fluorescent uptake, Lineweaver-Burk; blocked by nomifensine
Type: cell-based, Mus musculus

B1: DA uptake transporter (DAT) (Mus musculus) (protein)
chain: MSKSKCSVGPMSSVVAPAKEPNAVGPREVELILVKEQNGVQLTNSTLINPPQTPVEVQERETWSKKIDFLLSVIGFAVDLANVWRFPYLCYKNGGGAFLVPYLLFMVIAGMPLFYMELALGQFNREGAAGVWKICPVLKGVGFTVILISFYVGFFYNVIIAWALHYFFSSFTMDLPWIHCNNTWNSPNCSDAHSSNSSDGLGLNDTFGTTPAAEYFERGVLHLHQSRGIDDLGPPRWQLTACLVLVIVLLYFSLWKGVKTSGKVVWITATMPYVVLTALLLRGVTLPGAMDGIRAYLSVDFYRLCEASVWIDAATQVCFSLGVGFGVLIAFSSYNKFTNNCYRDAIITTSINSLTSFSSGFVVFSFLGYMAQKHNVPIRDVATDGPGLIFIIYPEAIATLPLSSAWAAVFFLMLLTLGIDSAMGGMESVITGLVDEFQLLHRHRELFTLGIVLATFLLSLFCVTNGGIYVFTLLDHFAAGTSILFGVLIEAIGVAWFYGVQQFSDDIKQMTGQRPNLYWRLCWKLVSPCFLLYVVVVSIVTFRPPHYGAYIFPDWANALGWIIATSSMAMVPIYATYKFCSLPGSFREKLAYAITPEKDRQLVDRGEVRQFTLRHWLLV
notes: native transporter in cultured primary mouse SN and VTA dopaminergic neurons
- Km: 16.9 ± 5.5 µM
